These results are taken from the DeepSol protein solubility set.

A short description of this series: soluble on expression in E. coli; label from the status in PepcDB or PDB records.
Consider “MSLSSTFSARGPLLTAAVLLVGLLAGCASSQSATAPSPDDSGQAQSPAQNETGENGLKPFGDVVPDTARTDPGLLTTHRFDGKLYVEIPDSLIGRELLMVSRAAQTPDGFGYGGEKTATQVLRWQRRGDQLYLRVVSHEDMAQEDDPVYQAVQNSNLEPIIQSFSIEALNEDSTGVVAEVTDLFTSDVPSLGIPSAAREEYRVRRLDGDRTYIKGVESFPENTDIEAVLTYQAENPPSNASTKTLTVSMNHSMVLLPKEPMQPRLCDDRVGYFSVERVNYSSDEQRATEACFITRWKLEPKDPEAYARGELVEPKEPIVYYIDPATPKKWRPYLKQGVEAWQSTFREAGFKNAIIAKDPPSAEEDSTFDPDDIRYSTIRYFASEVQNAYGPHVHDPRSGEILESDIGWYHNVMNLLRNWYFVQTAAVNPEARKPVFSTEVMGKLVRFVAAHEVGHTLGLPHNMGSSNAVPVDSLRSPSYTADHGTAPSIMDYARFNYVAQPGDGVENFLPRIGTYDEWAVRWGYTKRPTGSPEEQAQTLDEMILEHTDDPRYFFGASGSIDPRSQSEDLGRDAMEASRLGIANLKRILPNLIQWTSRDGEGYATLEELYGAVVNQWRRYMGHVSQHLGGVHETPKTYGQEGPVYEPVSATDQERAVDFLLTHAFETPTWMVEADVLRRIEHAGALERVREAQVGVLDGVLDPERMARMLEAEAMSEDDVYGVGDLFGDLRGGVWAELESGSVIDPYRRNLQRGYLERLDYLMTAEVEAPPPEYQQYIDYTPVDVSQSDIRPYVRAELKTLRDDVQQGLRRTTDETTEMHLQDVLARIDQTLNGTEGHHHHHH”, for which the “soluble on expression in E. coli” value was “not soluble”.

Consider “MSLSTGDASGAPAVWSHGYTEASGVKNKLCVAALSVNNFCDNREALYGVFDGDRNVEVPYLLQCTMSDILAEELQKTKNEEEYMVNTFIVMQRKLGTAGQKLGGAAVLCHIKHDPVDPGGSFTLTSANVGKCQTVLCRNGKPLPLSRSYIMSCEEELKRIKQHKAIITEDGKVNGVTESTRILGYTFLHPSVVPRPHVQSVLLTPQDEFFILGSKGLWDSLSVEEAVEAVRNVPDALAAAKKLCTLAQSYGCHDSISAVVVQLSVTEDEGHHHHHH”, for which the “soluble on expression in E. coli” value is recorded as “soluble”.

“MSLSTMGPLGGISVIFDLDGTLVDSEPHYYEAGRRTLAEYGVPDFSWADHEAYVGISTQETVADWKRRYGLRATVEELLAVKNRHYLGLARTSARAYPEMRKFVELLAGEGVPMAVASGSSPEAIAAILARTGLDAHLRTVVSADEVARGKPAPDVFLEAARRLGTEPARCVVLEDAAPGAAAAHAAGMRCIAIPYVSGQADAPEFATAELLVRGGQEEFTARAAHDWLRTDGNATRETEGHHHHHH”: the “soluble on expression in E. coli” value is “soluble”.

Consider “MSLSTYILNTNDKARERLSLQHQLYAKSSLDLLSEVGPSAAMTALEIGCGSGDMTLELAKLIGREGSLLTIDLSQDQLDHTQQRTRTYSNIRFKVWDVNHLSDLGEKFDLIYCRMVLHHVADARSVILQMKNCLNSGGFVVCEEPSLFDSTFCSPPSPSYDQFTQWARSCFSKSNRDFQIAHRLEQEFSSCGFEIEHCSLFQPLLRTNKEKLIYSMALDDLTPQLLELGIAKREEIKQLHNELEDLAKTNSTMCWIRMHKIIAKLNEGHHHHHH”, for which the “soluble on expression in E. coli” value was “soluble”.

With “MSLSVFDLFKIGIGPSSSHTVGPMRAAARFAEGLRREGLLEATASIKVELYGSLGATGKGHGSDKAVLLGLEGEQPDTVDTAAIPARLDAIRSSGELRLLGERPIRFVEKEHLALIRKPLAYHPNGMIFRAFDAAGLQVRSREYYSVGGGFVVDDEAAGLDRIVEDRTPLAFPFKTARQLLDHCAREGLSISQLMAENEKAWRPAEETRTGLLRIWQVMQDCVEAGCRNEGIMPGGLKVRRRAAALHRQLCQRPEAGLRDALSVLDWVNLYALAVNEENASGGRVVTAPTNGAAGIIPAVLHYYARFIPGADDDGVVRFLLTAAAIGILYKENASISGAEVGCQGEVGVACSMAAGALCEVLGGSVQQVENAAEIGMEHNLGLTCDPVGGLVQVPCIERNAMASVKAINAARMALRGDGQHFISLDKVIRTMRQTGADMKSKYKETARGGLAVNIIEC”, the “soluble on expression in E. coli” value is “not soluble”.

On to “MSLSVNSRILWVDLENSPHVPFFKPIIEELEKHGYRVVITARDCFQVCGLADLYGLPYTRIGRHYGKHKALKVVGAVIRALQMRNTLARPLPSLAIAHGSRSQLLAAKILHIPALQLADYEFSNKMPSFLSSDWIMVPETIPAGLHWRNTSRISTYPGIKEDVYVPTFKPQTGILSELGILEKEIVVTIRPPASEAHYHNPKSDDLFYATVNWLSGIDNLRMVVLPRNSSQAAHIGKTWPALIGEAKMVIPDRVLDGLNLIWHSDLVISGGGTMNREAAALGVPVYSIFKGEIGAVDKYLASTGRLTLLETADDITNKVLIQKWERPSSPDHNPRPALKVIVDKILELVEGHHHHHH”, for which the “soluble on expression in E. coli” value is listed as “not soluble”.

For “MSLSVTIFSEFESEVRSYCRAFPAVFSRAKGEYLLAEDGRKFLDFFAGAGSLNYGHNDDDMIEAAISYMRQDGVLNGLDLNTSAKAEFIETFRTLVLQPRDLNYKLQFTGPTGANAVEAAMKLARKVTQRPDIACFSGGYHGMSLGALSVTANAVKRASLVVQVPGVVRLPYEGAIEGSVASQLRVLQDMLCRPGFGIDPPAAFLLECVQGEGGVNCASAEWLQGVAALARKLGALLIVDEIQTGCGRTGRFFSFEHACIEPDIICLSKSLGGGGLPFSLNLIKPEIDIWNPGEHNGTFRGNNLAMVMATAALRKYWATPHFAHEVEEKGLAVAACLKNALQAFDGQVRVVGKGLMIGLRFQHAEHAREASRRLFESGLLIEVCGPRNEVLKLMPVLTMDRQAMLAAASRIAACAQALLSRSLESETEGHHHHHH”, the “soluble on expression in E. coli” value is given as “soluble”.

Consider “MSLSYLLALDAGTGSIRAVIFDLNGRQLAVGQAEWKHLSVDNVPGSMEFDLTTNWQLACQCIRQALDAARLSAADIQSVACCSMREGIVLYDRNGEAIWACANVDARASREVAELKEIHDFRFESEVYEVSGQTLALSAMPRLLWLAHHRPDIYRKAATITMISDWLAAKLSGELAVDPSNAGTTGMLDLFSRDWRPALLDMAGLRADMLSPVKETGTLLGAVTEAAAQQSGLRAGTPVVMGGGDVQLGCLGLGVVRAGQTAVLGGTFWQQVVNLPQVRTDPQMNIRVNPHVIPGMAQAESISFFTGLTMRWFRDAFCAEEKLIAERLGVDAYSLLEEMASRVPAGSHGVMPIFSDAMHFKQWYHAAPSFINLSIDPEKCNKATLFRALEENAAIVSACNLAQISQFSGVTFESLVFAGGGSKGALWSQILSDVTGLPVRVPVVREATALGCAIAAGTGAGLYDDMASTGERLVSWHREFTPNPQHRELYQEMMSKWQTVYADQLGLVDSGLTTSMWQAPGLERRQRVASSPSEGHHHHHH”, for which the “soluble on expression in E. coli” value is “soluble”.

Turning to “MSLTARRFLNELADLYGVATSYTDYKGAHIEVSDDTLVKILRALGVNLDTSNLPNDDAIQRQIALFHDREFTRPLPPSVVAVEGDELVFPVHVHDGSPADVHIELEDGTQRDVSQVENWTAPREIDGIRWGEASFKIPGDLPLGWHKLHLKSNERSAECGLIITPARLSTADKYLDSPRSGVMAQIYSVRSTLSWGMGDFNDLGNLASVVAQDGADFLLINPMHAAEPLPPTEDSPYLPTTRRFINPIYIRVEDIPEFNQLEIDLRDDIAEMAAEFRERNLTSDIIERNDVYAAKLQVLRAIFEMPRSSEREANFVSFVQREGQGLIDFATWCADRETAQSESVHGTEPDRDELTMFYMWLQWLCDEQLAAAQKRAVDAGMSIGIMADLAVGVHPGGADAQNLSHVLAPDASVGAPPDGYNQQGQDWSQPPWHPVRLAEEGYIPWRNLLRTVLRHSGGIRVDHVLGLFRLFVMPRMQSPATGTYIRFDHNALVGILALEAELAGAVVIGEDLGTFEPWVQDALAQRGIMGTSILWFEHSPSQPGPRRQEEYRPLALTTVTTHDLPPTAGYLEGEHIALRERLGVLNTDPAAELAEDLQWQAEILDVAASANALPAREYVGLERDQRGELAELLEGLHTFVAKTPSALTCVCLVDMVGEKRAQNQPGTTRDMYPNWCIPLCDSEGNSVLIESLRENELYHRVAKASKRDEGHHHHHH”, the “soluble on expression in E. coli” value is given as “soluble”.

As for “MSLTARVIALDLDGTLLTPHKTLLPSSLDALSRAKEAGFQLIIVTGRHHVAIHPFYQALALETPAICCNGTYLYDYQAKTVLDADPMPVDKALQLIDLLDEHQIHGLMYVDDAMLYEHPTGHVVRTSRWAQTLPPEQRPTFAQVSSLAQAARDVNAVWKFALTDEDIPKLQRFGQHVEQALGLECEWSWHDQVDIARKGNSKGKRLTQWIEAQGGSMKNVIAFGDNYNDISMLEAAGTGVAMGNADEAVKARADVVIGDNTTDSIAKFIYTHLLEGHHHHHH”, the “soluble on expression in E. coli” value is “soluble”.

Turning to “MSLTDRIFINAVDAGGQPIHLVVRDGRFIAIGADCAAAPGAETIDLDGRVVLPGFVDGHIHLDKSFVGDRWVPHEPVGTLRERLAVEKRQLAAAPPIVERANALIAQAAAFGTVAMRSHVDVDATTGLSNLQAVMAAREQWRGIVDIELVAFPQAGVVTCPGTAEILDVAVREGADVVGGIDPTTLDGDADGQLDIVFGIAEKRGAKIDIHLHEPGETGIAQLLRIAARTRAAGLGGRVNVSHAYALGQVSDGDVQRTAAALAEAGVSILTNAPGDCAFPPVQALRDAGVHVFAGNDNIRDAWWPYGNGDMLQRAMMVGYRSGFYTDEALGIALDMATHAGARVIGKDNYGIAVGRDATFVAVRAPNAAAAVAGVPAERWVFRRGESDTGAPFAPALRFTREGHHHHHH”, the “soluble on expression in E. coli” value is reported as “soluble”.

Regarding “MSLTEDLNKRVEQAAQGITPQTKPDERRRYLGSLRERVLVRLNNTEVKDPKLTALFLKHITDFKGYTILINGNITDDGFLGEVEAACSKEDIPFTLVNNETAKTGPEDTAILVVAKTAINHPRVEINQVYPPEMPKTELSAPSKKHESFWHHLFHKDEGHHHHHH”, the “soluble on expression in E. coli” value is “soluble”.

Regarding “MSLTEFWNSFSNLFTGGRSTNRKIILVLLIMVLSSGVCSADNYVGGIPLTSAHSGTVSGGVYCDSYYGMGDQEAKASNTIEKTFTVPDNANVEWAMLLTNVYCGHMQNNYQGKAKVDFNGKNLGTETLNVPYTYSYNGGNGHVQVNDHVNRVTSDYMMYYDVTGLVKAGKNTAVVKTDPLDSSFDGRIRLVTLVVAYNDGSKKTIWYQVNRGHDADSYYSDDEMNENYIGSTAFQAALPEGSSLTDSKLTLVYQASSDGAYAFNGNALSSGTPQGTFSGSNTWDVKDSLKSSGTNTLTYDRTASFYKSVLGILTAEYTTSSSGDSTDDTPADNEGHHHHHH”, the “soluble on expression in E. coli” value is listed as “soluble”.

Take “MSLTGREILEKLERREFTREVLKEALSINDRGFNEALFKLADEIRRKYVGDEVHIRAIIEFSNVCRKNCLYCGLRRDNKNLKRYRMTPEEIVERARLAVQFGAKTIVLQSGEDPYYMPDVISDIVKEIKKMGVAVTLSLGEWPREYYEKWKEAGADRYLLRHETANPVLHRKLRPDTSFENRLNCLLTLKELGYETGAGSMVGLPGQTIDDLVDDLLFLKEHDFDMVGIGPFIPHPDTPLANEKKGDFTLTLKMVALTRILLPDSNIPATTAMGTIVPGGREITLRCGANVIMPNWTPSPYRQLYQLYPGKICVFEKDTACIPCVMKMIELLGRKPGRDWGGRKRVFETVEGHHHHHH”: the “soluble on expression in E. coli” value is on record as “soluble”.

Turning to “MSLTIAVYGLGKMGLPLAAVFADHGANVIGVDINERVVEMVNKGENHVKEEPGLDELVRRNVEEGRLRATTDGVWAAKSADVMIILVPTLADDRGNLKLEPVYDVANKIAKGLEKGDIVITEATMPPGTTESLIPILEKSGLKLGEFGLAHAPERTMTGTAIRDITGQYPKIVGASDERTLEAVIGLYETINRKGVIPMSSIKAAEAVKVFEGVYRDVNIALANELALWCEEHGLDALEIFNAANTQPYCHLHMPGAGVGGHCIPVYPWFVISLAKKTNPRLIKTAREINDSMPHHIVELTIRGLNEVGKPLKGSNVLVLGLTFRGGVREFTKSPAIDVIKELKEWGARVFTYDPLCNEEDAKRFGAEWKEDFKDVDAIVIVTDHKEFKDLNLEEIAKQVRNRVIVDGRNILDPRKAEKLGFVYLRVGRVEGHHHHHH”, the “soluble on expression in E. coli” value is “soluble”.
